The values that follow come from article PMC4804311.

Experiment [1] deals with CTD released by factor Xa from full-length proRgpB662iXa produced in P. gingivalis (Porphyromonas gingivalis W83) (UniProt P95493). Put plainly: cross-linking; glutaraldehyde (0.01-0.1%) in PBS, 5 min at 37 °C, stopped with 100 mM Tris; protein at 1, 0.5 and 0.1 mg/ml; SDS-PAGE and Western blot. (A western blot detects proteins with antibodies after separation by electrophoresis.)

Experiment [2] has as its target recombinant C-terminal domain (CTD) of gingipain B (RgpB) (Porphyromonas gingivalis W83) (UniProt P95493). The experiment is described as above.
For experiment [3] the target is unchanged. Kind of experiment: cross-linking; data not shown: rCTD and r664i6H at 0.1 mg/ml exposed to 0.1, 0.05 and 0.01% glutaraldehyde.
Experiment [4] shares this target. Kind of experiment: SEC; Superdex 75 10/300 GL, 50 mM Tris, 150 mM NaCl, 2.5 mM CaCl2, 0.02% NaN3 pH 7.5; fractions analysed by Western blot with anti-rCTD antibodies.

As usually defined, the stoichiometry N is a count of units in the complex or per binding partner. As for “CTD released by factor Xa from full-length proRgpB662iXa produced in P. gingivalis (from UniProt P95493 663-736) (domain or fragment)”, the stoichiometry N in experiment [1] was 2.
“recombinant C-terminal domain (CTD) of gingipain B (RgpB) (from UniProt P95493 664-736) (domain or fragment)”: the stoichiometry N in experiment [2], in experiment [3] and in experiment [4] was 2 each time.
